# Measurements taken from US20150093375A1.
# Biological target: Fzd4 (Homo sapiens (Human)) (UniProt Q9ULV1)
# Assay: cell-based or functional assay
# Sequence of UniProt Q9ULV1 (Q9ULV1 37-537 limits assumed, form in doubt): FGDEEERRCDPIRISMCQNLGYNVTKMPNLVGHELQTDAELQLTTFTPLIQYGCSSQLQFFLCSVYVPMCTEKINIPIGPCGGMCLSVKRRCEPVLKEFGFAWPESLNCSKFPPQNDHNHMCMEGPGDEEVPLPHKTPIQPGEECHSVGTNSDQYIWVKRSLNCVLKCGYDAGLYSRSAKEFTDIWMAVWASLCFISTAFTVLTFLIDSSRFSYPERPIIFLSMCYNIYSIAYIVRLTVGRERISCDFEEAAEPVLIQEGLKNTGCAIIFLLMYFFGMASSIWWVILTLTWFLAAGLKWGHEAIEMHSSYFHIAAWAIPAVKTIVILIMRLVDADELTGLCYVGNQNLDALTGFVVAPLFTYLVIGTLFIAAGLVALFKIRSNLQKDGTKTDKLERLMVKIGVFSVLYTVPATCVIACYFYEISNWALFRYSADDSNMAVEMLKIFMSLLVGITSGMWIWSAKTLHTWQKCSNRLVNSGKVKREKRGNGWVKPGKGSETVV
substance,measurement,value
recombinant Norrin (ligand),"Topflash reporter activity (firefly divided by renilla), cells overexpressing TSPAN12 against control cells, 10 nM recombinant Norrin",4 fold
